Reference: patent US20040175816

Target: T1, OkrAI restriction endonuclease (Oceanospirillum kriegii) (UniProt E2JKI3)
T1 sequence: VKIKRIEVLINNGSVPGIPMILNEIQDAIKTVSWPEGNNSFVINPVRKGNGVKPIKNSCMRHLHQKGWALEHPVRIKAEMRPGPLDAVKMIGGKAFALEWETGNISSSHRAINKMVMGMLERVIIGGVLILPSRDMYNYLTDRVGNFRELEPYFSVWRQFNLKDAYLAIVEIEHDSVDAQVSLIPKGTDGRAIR
Assay: cleavage_in_vitro
Conditions: approximate yield, assayed in cell extract; isoschizomer of BamHI

lambda phage DNA was tested, and the activity (units per gram wet cells) was 5e+06.
